Reference: US20240279357A1 (THERINI BIO, published 2024)

Molecular target: T1, human Fibrin (human fibrinogen clotted on the plate with thrombin and CaCl2) (human, UniProt P02671 36-629; P02675 45-491; P02679 27-437)
T1 construct: Made in the ELISA wells from the human fibrinogen by thrombin and CaCl2, 1 hour at 37 C, then dried
T1 sequence (looked up) 1: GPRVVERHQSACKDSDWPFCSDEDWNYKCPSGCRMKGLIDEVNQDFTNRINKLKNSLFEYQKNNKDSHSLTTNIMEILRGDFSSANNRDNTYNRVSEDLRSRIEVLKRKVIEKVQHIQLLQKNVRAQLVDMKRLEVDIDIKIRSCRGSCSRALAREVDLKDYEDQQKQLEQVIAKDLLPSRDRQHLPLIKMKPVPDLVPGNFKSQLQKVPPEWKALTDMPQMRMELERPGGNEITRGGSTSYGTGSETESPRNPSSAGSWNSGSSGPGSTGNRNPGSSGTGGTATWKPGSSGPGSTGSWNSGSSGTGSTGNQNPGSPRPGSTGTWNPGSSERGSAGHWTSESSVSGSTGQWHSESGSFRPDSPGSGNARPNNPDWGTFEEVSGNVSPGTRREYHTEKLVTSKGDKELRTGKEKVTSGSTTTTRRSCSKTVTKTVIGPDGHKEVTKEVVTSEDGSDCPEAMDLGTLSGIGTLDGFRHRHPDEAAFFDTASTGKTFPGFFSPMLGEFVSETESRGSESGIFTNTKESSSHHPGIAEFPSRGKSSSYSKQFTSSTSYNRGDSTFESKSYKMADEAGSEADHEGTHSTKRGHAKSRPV
T1 sequence (looked up) 2: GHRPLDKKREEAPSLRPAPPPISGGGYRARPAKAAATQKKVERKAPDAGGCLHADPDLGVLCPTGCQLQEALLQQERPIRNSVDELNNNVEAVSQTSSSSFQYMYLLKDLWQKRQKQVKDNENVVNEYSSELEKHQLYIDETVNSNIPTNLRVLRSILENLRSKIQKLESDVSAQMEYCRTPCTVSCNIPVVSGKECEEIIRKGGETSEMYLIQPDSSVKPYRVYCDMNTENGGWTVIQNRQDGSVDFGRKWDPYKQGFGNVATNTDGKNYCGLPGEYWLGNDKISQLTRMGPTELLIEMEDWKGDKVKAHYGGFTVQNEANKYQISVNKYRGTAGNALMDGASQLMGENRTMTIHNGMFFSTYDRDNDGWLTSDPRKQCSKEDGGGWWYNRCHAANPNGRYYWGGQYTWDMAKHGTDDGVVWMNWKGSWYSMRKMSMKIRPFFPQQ
T1 sequence (looked up) 3: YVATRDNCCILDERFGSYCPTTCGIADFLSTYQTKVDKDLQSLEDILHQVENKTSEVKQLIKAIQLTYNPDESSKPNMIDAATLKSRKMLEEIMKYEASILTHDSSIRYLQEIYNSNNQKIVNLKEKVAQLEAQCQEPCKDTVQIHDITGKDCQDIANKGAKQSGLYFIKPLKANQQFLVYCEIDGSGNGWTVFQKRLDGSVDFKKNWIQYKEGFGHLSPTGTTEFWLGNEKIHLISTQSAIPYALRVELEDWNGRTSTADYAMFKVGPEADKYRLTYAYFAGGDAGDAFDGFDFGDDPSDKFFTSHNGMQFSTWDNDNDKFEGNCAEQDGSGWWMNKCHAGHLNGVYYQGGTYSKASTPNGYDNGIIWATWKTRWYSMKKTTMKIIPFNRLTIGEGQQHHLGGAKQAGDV
Assay: ELISA on plate-coated human fibrin (fibrinogen clotted in the well with thrombin/CaCl2), antibody titrated, A450
Description: The humanized antibodies affinity for fibrinogen, fibrin and P2 peptide were assessed by Enzyme-linked immunosorbent assays (ELISA)s (FIGS. 7-16). ELISAs for fibrinogen binding were performed using plasminogen-depleted human Fibrinogen (EMD/Calbiochem). […] IgG1-depleted Fibrinogen (FGN) in 20 mM HEPES/Saline buffer was added to each well of half of a 96-well Nunc Maxisorp™ ELISA plate. The ELISAs for fibrin binding were prepared by adding 50 mL of 20 mM HEPES/Saline buffer containing 14 mM CaCl₂, and 2 units thrombin to each well of the second half of the Nunc Maxisorp™ ELISA plate. 50 mL of 20 mg fibrinogen in 20 mM HEPES/Saline buffer were then added to a total volume of 100 mL. Plates were placed in a 37° C. incubator for 1 hour to allow fibrinogen to clot into fibrin and subsequently placed overnight into a plate dryer at 37° C. overnight. The ELISAs for P2 peptide were prepared by addition of […] of 30 mM P2 peptide in 20 mM HEPES/Saline buffer to each well of a 96-well Nunc Maxisorp™ ELISA plate. Plates were transferred to the plate dryer and dried overnight at 37° C. All ELISAs were preformed using Nunc MaxiSorp 96-well ELISA plates. Blocking was performed using 100 mL 5% BSA in DPBS are incubated at RT for 1 hour. Plates were washed 5× in DPBS containing 0.05% Tween-20 (EL406 was used for the addition of wash buffer only). […]

B1: humanized VH4/Vκ1 antibody (antibody, IgG1, V domains shown)
VH: QVQLVQSGAEVKKPGSSVKVSCKASGYTFTSYWIHWVRQAPGQGLEWIGLIDPSDSYTNYNQKFRGRVTITVDTSTSTAYMELSSLRSEDTAVYYCASSDPTGCWGQGTTVTVSS
VL: DIVMTQAAFSNPITPGTPASISCRSSKSLLHSSGITYLSWYLQKPGQSPQLLIYQMSNLASGVPDRFSSSGSGTDFTLRISRVEAEDVGVYYCAQNLELPLTFGQGTKLEIK
notes: Expressed as IgG1; also called VH4/VK1; VH4Vk1
  EC50 (read off the curve): ~300 nM
